In the Human Domainome abundance scans (Beltran et al. 2025):
± gives the uncertainty stated by the source.

B1: FERM and PDZ domain-containing protein 4, residues 75 to 154; numbered along this chain, Q14CM0 (parent)
chain: APRKVEMRRDPVLGFGFVAGSEKPVVVRSVTPGGPSEGKLIPGDQIVMINDEPVSAAPRERVIDLVRSCKESILLTVIQP

Variants of: B1
Assay: abundance fitness (aPCA) (normalised: wild type 0, dead -1); higher = more abundant; growth selection in yeast, the domain comes from the species named
Settings: Homo sapiens
With V26W the abundance fitness was -0.379 ± 0.029.
Variant V26G has an abundance fitness of -0.446 ± 0.023.
With V26T the abundance fitness was 0.008 ± 0.028.
V26M gave an abundance fitness of -0.012 ± 0.032.
With V26H the abundance fitness was -0.159 ± 0.044.
For V26F, the abundance fitness was -0.123 ± 0.043.
In the case of V26E, the abundance fitness is reported as -0.036 ± 0.026.
Variant V26D has an abundance fitness of -0.135 ± 0.039.
With V26C the abundance fitness was -0.07 ± 0.033.
V26K showed an abundance fitness of -0.048 ± 0.028.
V26L showed an abundance fitness of -0.038 ± 0.024.
Work on G20N yielded an abundance fitness of -0.089 ± 0.047.
With G20W the abundance fitness was -0.105 ± 0.026.
With G20F the abundance fitness was -0.155 ± 0.045.
In the case of G20C, the abundance fitness is reported as -0.094 ± 0.033.
Variant G20S has an abundance fitness of -0.002 ± 0.025.
G20E showed an abundance fitness of 0.01 ± 0.027.
For G20K, the abundance fitness was -0.093 ± 0.032.
G20D showed an abundance fitness of 0.017 ± 0.032.
Work on G20Y yielded an abundance fitness of -0.067 ± 0.04.
Variant G20L has an abundance fitness of -0.116 ± 0.025.
With G20T the abundance fitness was -0.061 ± 0.029.
In the case of G20Q, the abundance fitness is reported as -0.03 ± 0.033.
For G20I, the abundance fitness was -0.051 ± 0.05.
G20H gave an abundance fitness of -0.029 ± 0.047.
D10V showed an abundance fitness of -0.214 ± 0.03.
For D10S, the abundance fitness was -0.099 ± 0.032.
For D10Y, the abundance fitness was -0.521 ± 0.058.
For D10C, the abundance fitness was -0.138 ± 0.04.
For D10Q, the abundance fitness was -0.32 ± 0.046.
With D10L the abundance fitness was -0.369 ± 0.034.
D10I showed an abundance fitness of -0.364 ± 0.067.
Variant D10E has an abundance fitness of -0.27 ± 0.037.
D10H gave an abundance fitness of -0.12 ± 0.057.
D10K gave an abundance fitness of -0.42 ± 0.063.
D10T showed an abundance fitness of -0.38 ± 0.043.
With D10N the abundance fitness was -0.071 ± 0.044.
D10G showed an abundance fitness of -0.591 ± 0.032.
D10M showed an abundance fitness of -0.207 ± 0.048.
D10W showed an abundance fitness of -0.422 ± 0.041.
For D10R, the abundance fitness was -0.455 ± 0.031.
For D10F, the abundance fitness was -0.535 ± 0.062.
Variant S29D has an abundance fitness of -0.034 ± 0.037.
S29N showed an abundance fitness of -0.032 ± 0.041.
S29H gave an abundance fitness of -0.139 ± 0.039.
With S29T the abundance fitness was -0.029 ± 0.027.
In the case of S29R, the abundance fitness is reported as -0.069 ± 0.02.
S29Y showed an abundance fitness of -0.189 ± 0.039.
With S29L the abundance fitness was -0.152 ± 0.023.
S29K gave an abundance fitness of -0.059 ± 0.032.
Variant S29M has an abundance fitness of -0.083 ± 0.029.
With S29A the abundance fitness was -0.074 ± 0.024.
S29G gave an abundance fitness of -0.055 ± 0.021.
S29E showed an abundance fitness of 0.007 ± 0.026.
S29V showed an abundance fitness of -0.136 ± 0.023.
With S29I the abundance fitness was -0.221 ± 0.047.
S29Q gave an abundance fitness of -0.026 ± 0.027.
With S29P the abundance fitness was -0.826 ± 0.044.
S29W gave an abundance fitness of -0.22 ± 0.024.
Variant S29F has an abundance fitness of -0.197 ± 0.039.
Variant S29C has an abundance fitness of -0.136 ± 0.03.
Variant V18Y has an abundance fitness of -0.078 ± 0.046.
For V18G, the abundance fitness was -0.112 ± 0.02.
With V18W the abundance fitness was -0.38 ± 0.03.
With V18K the abundance fitness was -0.118 ± 0.032.
In the case of V18M, the abundance fitness is reported as -0.075 ± 0.034.
Variant V18F has an abundance fitness of -0.255 ± 0.044.
Variant V18P has an abundance fitness of -1.03 ± 0.073.
V18I showed an abundance fitness of -0.01 ± 0.038.
For V18T, the abundance fitness was -0.092 ± 0.028.
V18D showed an abundance fitness of -0.055 ± 0.035.
With V18A the abundance fitness was -0.058 ± 0.023.
Variant V18C has an abundance fitness of -0.041 ± 0.032.
Variant V18H has an abundance fitness of -0.048 ± 0.048.
With V18L the abundance fitness was -0.142 ± 0.025.
Work on V18S yielded an abundance fitness of -0.095 ± 0.027.
Variant V18N has an abundance fitness of -0.104 ± 0.049.
Work on V18E yielded an abundance fitness of -0.019 ± 0.025.
P24G showed an abundance fitness of -0.329 ± 0.022.
P24F gave an abundance fitness of -0.686 ± 0.076.
Variant P24V has an abundance fitness of -0.725 ± 0.034.
For P24W, the abundance fitness was -0.947 ± 0.049.
In the case of P24Q, the abundance fitness is reported as -0.472 ± 0.041.
In the case of P24M, the abundance fitness is reported as -0.53 ± 0.042.
Variant P24E has an abundance fitness of -0.51 ± 0.036.
With P24I the abundance fitness was -0.777 ± 0.08.
Work on P24S yielded an abundance fitness of -0.48 ± 0.031.
With P24N the abundance fitness was -0.333 ± 0.054.
For P24L, the abundance fitness was -0.77 ± 0.037.
P24Y gave an abundance fitness of -0.691 ± 0.081.
In the case of P24H, the abundance fitness is reported as -0.501 ± 0.05.
For P24K, the abundance fitness was -0.64 ± 0.049.
With P24T the abundance fitness was -0.471 ± 0.037.
P24A gave an abundance fitness of -0.448 ± 0.029.
P24R gave an abundance fitness of -0.572 ± 0.025.
For P24C, the abundance fitness was -0.51 ± 0.045.
Work on P24D yielded an abundance fitness of -0.433 ± 0.05.
For V12C, the abundance fitness was -0.056 ± 0.04.
V12K showed an abundance fitness of 0.004 ± 0.04.
For V12I, the abundance fitness was -0.055 ± 0.04.
V12P gave an abundance fitness of -0.545 ± 0.046.
V12G gave an abundance fitness of -0.048 ± 0.025.
V12L gave an abundance fitness of -0.001 ± 0.029.
For V12R, the abundance fitness was -0.023 ± 0.027.
Variant V12D has an abundance fitness of 0.004 ± 0.046.
Work on V12H yielded an abundance fitness of 0.043 ± 0.051.
V12F showed an abundance fitness of -0.089 ± 0.054.
With V12N the abundance fitness was 0.025 ± 0.056.
Variant V12M has an abundance fitness of 0.007 ± 0.041.
Work on V12T yielded an abundance fitness of 0.049 ± 0.039.
Work on V12W yielded an abundance fitness of -0.14 ± 0.038.
For V12S, the abundance fitness was -0.006 ± 0.031.
With V12E the abundance fitness was -0.068 ± 0.036.
With V12Q the abundance fitness was 0 ± 0.037.
V12Y showed an abundance fitness of -0.065 ± 0.049.
For A19S, the abundance fitness was -0.066 ± 0.026.
A19I showed an abundance fitness of 0.021 ± 0.048.
With A19V the abundance fitness was 0.003 ± 0.024.
In the case of A19F, the abundance fitness is reported as -0.016 ± 0.04.
In the case of A19N, the abundance fitness is reported as -0.286 ± 0.048.
A19G gave an abundance fitness of -0.074 ± 0.021.
Variant A19Q has an abundance fitness of -0.084 ± 0.033.
A19L gave an abundance fitness of 0.045 ± 0.024.
For A19K, the abundance fitness was -0.594 ± 0.045.
A19Y gave an abundance fitness of -0.081 ± 0.043.
In the case of A19R, the abundance fitness is reported as -0.83 ± 0.034.
In the case of A19P, the abundance fitness is reported as -0.029 ± 0.029.
In the case of A19T, the abundance fitness is reported as -0.005 ± 0.03.
In the case of A19H, the abundance fitness is reported as -0.03 ± 0.046.
In the case of A19W, the abundance fitness is reported as -0.045 ± 0.03.
For A19E, the abundance fitness was -0.075 ± 0.028.
For A19C, the abundance fitness was -0.001 ± 0.037.
A19M gave an abundance fitness of 0.003 ± 0.033.
R28G gave an abundance fitness of -0.014 ± 0.02.
Variant R28C has an abundance fitness of -0.136 ± 0.032.
With R28T the abundance fitness was 0.005 ± 0.029.
For R28N, the abundance fitness was 0.001 ± 0.038.
R28V gave an abundance fitness of -0.089 ± 0.022.
Variant R28Q has an abundance fitness of 0.027 ± 0.031.
In the case of R28Y, the abundance fitness is reported as -0.137 ± 0.037.
In the case of R28P, the abundance fitness is reported as -0.725 ± 0.052.
Variant R28F has an abundance fitness of -0.134 ± 0.043.
Work on R28L yielded an abundance fitness of -0.036 ± 0.024.
R28M showed an abundance fitness of -0.065 ± 0.029.
R28E showed an abundance fitness of 0.034 ± 0.025.
For R28A, the abundance fitness was -0.032 ± 0.023.
For R28H, the abundance fitness was -0.08 ± 0.039.
R28D gave an abundance fitness of -0.038 ± 0.034.
R28K showed an abundance fitness of -0.002 ± 0.03.
In the case of V25W, the abundance fitness is reported as -0.078 ± 0.028.
With V25I the abundance fitness was -0.116 ± 0.036.
Variant V25N has an abundance fitness of -0.23 ± 0.046.
Variant V25Q has an abundance fitness of -0.373 ± 0.034.
In the case of V25E, the abundance fitness is reported as -0.796 ± 0.047.
In the case of V25F, the abundance fitness is reported as -0.127 ± 0.035.
V25R gave an abundance fitness of -0.326 ± 0.023.
V25D showed an abundance fitness of -0.535 ± 0.048.
V25C gave an abundance fitness of -0.005 ± 0.032.
With V25Y the abundance fitness was -0.144 ± 0.047.
Work on V25A yielded an abundance fitness of -0.052 ± 0.026.
Variant V25K has an abundance fitness of -0.889 ± 0.068.
V25H gave an abundance fitness of -0.135 ± 0.043.
For V25T, the abundance fitness was 0.004 ± 0.031.
Variant V25G has an abundance fitness of -0.467 ± 0.025.
V25M showed an abundance fitness of 0.157 ± 0.046.
V25L gave an abundance fitness of 0.006 ± 0.024.
Work on V25S yielded an abundance fitness of 0 ± 0.026.
